From patent EP1997885A1 (AXXAM S.p.A., dated 2008) come the findings set out here.

Where a chain is given by its changes, count along the chain named. In names and notes the source's numbering stands.

The target in data set [1] is recombinant (His6)-tagged DsRed2. Put plainly: size exclusion chromatography on Superdex 200, 2 mg/mL, self-association. (In gel filtration, larger molecules generally elute earlier.)
Data set [2] concerns the target recombinant (His6)-tagged EGFP. The data set is described as above.
The target of data set [3] is AsGFP499(S103K), recombinant his-tagged (Anemonia sulcata). The experiment in a line: pseudo-native SDS-PAGE, self-association.
For data set [4] the target is unchanged. Put plainly: size exclusion chromatography on Superdex 200, 2 mg/mL, self-association.
For data set [5], the target named is AsGFP499(S103K/R150E), recombinant his-tagged (Anemonia sulcata). The experiment in a line: size exclusion chromatography on Superdex 200, 2 mg/mL, self-association; first peak.
The target is the same in data set [6]. The experiment in a line: size exclusion chromatography on Superdex 200, 2 mg/mL, self-association; second peak.
In data set [7] the target is AsGFP499(S94T/S103K/R150K/S171N/K206R), recombinant his-tagged (Anemonia sulcata). The experiment in a line: size exclusion chromatography on Superdex 200, 2 mg/mL, self-association; first peak.
Data set [8] shares this target. The experiment in a line: size exclusion chromatography on Superdex 200, 2 mg/mL, self-association; second peak.
Data set [9] deals with the molecule itself. Put plainly: pseudo-native SDS-PAGE, self-association.

For the molecule recombinant (His6)-tagged DsRed2, the Apparent MW [kDa] in [1] was found to be 79 kDa.

In the case of recombinant (His6)-tagged EGFP, in data set [2], the Apparent MW [kDa] was 27 kDa.

B1: AsGFP499(S103K), recombinant his-tagged (protein, not shown: small tags and cut ends)
chain: MYPSIKETMRVQLSMEGSVNYHAFKCTGKGEGKPYEGTQSLNITITEGGPLPFAFDILSHAFQYGIKVFAKYPKEIPDFFKQSLPGGFSWERVSTYEDGGVLKATQETSLQGDCIICKVKVLGTNFPANGPVMQKKTCGWEPSTETVIPRDGGLLLRDTPALMLADGGHLSCFMETTYKSKKEVKLPELHFHHLRMEKLNISDDWKTVEQHESVVASYSQVPSKLGHN
With B1, the MW on pseudo-native SDS-PAGE in [3] is less than 50 kDa. The Apparent MW [kDa] in [4] worked out at 39 kDa.

B2: AsGFP499(S103K/R150E), recombinant his-tagged (protein, not shown: small tags and cut ends)
chain: B1 chain with R150E
Take B2: the Apparent MW [kDa] in data set [5] stood at 39 kDa; in data set [6], 23 kDa.

B3: AsGFP499(S94T/S103K/R150K/S171N/K206R), recombinant his-tagged (protein, not shown: small tags and cut ends)
chain: B1 chain with S94T, R150K, S171N, K206R
Turning to B3, the Apparent MW [kDa] in data set [7] worked out at 39 kDa; in data set [8], 23 kDa.

B4: AsGFP499(S94T/S103K/T159K/F173E), recombinant his-tagged (other)
chain: B1 chain with S94T, T159K, F173E
notes: Reported as a monomer; not shown: (His6) tag and vector-encoded residues of pET28a(+)
As for B4, the binding result in data set [9] is “no binding”.

B5: AsGFP499(S103K/T159K/F173E), recombinant his-tagged (other)
chain: B1 chain with T159K, F173E
notes: as for B4
B5: the binding result in data set [9] is “no binding”.

B6: AsGFP499(S103K/F173E) (other)
chain: B1 chain with F173E
notes: Only tested on the pseudo-native gel; reported as partly monomeric; also called AsGFP499 (S103/F173E); not shown: tag and vector-encoded residues of the bacterial expression vector
Turning to B6, the binding result in data set [9] was “binds”.
